Reference: US10597674B2, “HPPD variants and methods of use” (BASF Agricultural Solutions Seed, US LLC, priority 2015, dated 2020)
Substitutions are numbered along the chain they refer to. Numbers in names are those of the source. Like-named read-outs stand apart in the source and are kept apart here.

B1: 16 (protein)
chain: MADLYENPMGLMGFEFIEFASPTPGTLEPIFEIMGFTKVATHRSKNVHLYRQGEINLILNNEPNSIASYFAAEHGPSVCGMAFRVKDSQKAYNRALELGAQPIHIDTGPMELNLPAIKGIGGAPLYLIDRFGEGSSIYDIDFVYLEGVERNPVGAGLKVIDHLTHNVYRGRMVYWANFYEKLFNFREARYFDIKGEYTGLTSKAMSAPDGMIRIPLNEESSKGAGQIEEFLMQFNGEGIQHVAFLTDDLVKTWDALKKIGMRFMTAPSDSYYEMLEGRLPDHGEPVDQLQARGILLDGSSVEGDKRLLLQIFSETLMGPVFFEFIQRKGDDGFGPDSFKVLFESKERDQVRRGVLTAD
modifications: mutant HPPD polypeptide
B2: 48 (protein)
chain: B1 chain with S268G, S270E, D331H, K345V
modifications: mutant HPPD polypeptide
B3: SEQ ID NO: 101: mutant HPPD polypeptide: M264L P268G T270E T315R E335P G336D N337S A340V S344Q I345M (protein)
chain: B1 chain with M264L, S268G, S270E, T315R, S344Q, K345M
modifications: mutant HPPD polypeptide
notes: mutant HPPD polypeptide: M264L P268G T270E T315R E335P G336D N337S A340V S344Q I345M
B4: 38 (protein)
chain: B1 chain with S268G, S270E, D330V, K345V
modifications: mutant HPPD polypeptide
B5: SEQ ID NO: 22: mutant HPPD polypeptide: E335P G336H N337S A340V (protein)
chain: B1 chain with S268P, S270T, D336H, K345I
modifications: mutant HPPD polypeptide
notes: mutant HPPD polypeptide: E335P G336H N337S A340V
B6: 8 (protein)
chain: B1 chain with S268P, S270T, K345I
modifications: mutant HPPD polypeptide
B7: 33 (protein)
chain: B1 chain with S268G, S270E, V340R, K345V
modifications: mutant HPPD polypeptide
B8: 60 (protein)
chain: B1 chain with M264R, S268G, S270E, D330H, S344Q, K345V
modifications: mutant HPPD polypeptide
B9: 17 (protein)
chain: B1 chain with S268G, S270E, K345V
modifications: mutant HPPD polypeptide
B10: 45 (protein)
chain: B1 chain with S268G, S270E, T315R, K345V
modifications: mutant HPPD polypeptide
B11: 18 (protein)
chain: B1 chain with M264R, S268P, S270T, D330H, K345I
modifications: mutant HPPD polypeptide
B12: 50 (protein)
chain: B1 chain with S268G, S270E, D331P, K345V
modifications: mutant HPPD polypeptide
B13: 31 (protein)
chain: B1 chain with S268G, S270E, D336H, K345V
modifications: mutant HPPD polypeptide
B14: 36 (protein)
chain: B1 chain with M264R, S268G, S270E, D330H, K345M
modifications: mutant HPPD polypeptide

Legend:
[1] = system: HPPD polypeptides (wild-type SEQ ID NO:1 and mutants)
Description: For the generation of crude HPPD polypeptide extract in micro titer plates (MTP) for the determination of residual activity in inhibition assays, cells were grown in 40 or 150 μl LB medium containing 1% Glucose (Merck, Darmstadt, Germany) and 100 μg/ml ampicillin in a standard 96 well plate (Thermo Fisher Scientific, Waltham, USA) incubated for about 18 h in a humidity incubator at 37° C.
30 μl of this starter culture were added to 600 μl LB medium containing 100 μg/ml ampicillin and 150 mM Hepes (Merck, Darmstadt, Germany) as inoculum for the expression culture in 96 well plates (2 ml deep wells; HJ Bioanalytik, Erkelenz, Germany) The plates were sealed by an aluminium foil, and cells were incubated for 5 h at 37° C. on a plate shaker at 750 rpm. The expression was induced by addition of IPTG in a final concentration of 1 mM followed by further sealed incubation for about 18 h at 30° C. on a plate shaker at 750 rpm.
Cells were harvested by centrifugation at 4° C., 2500 g for 15 min discarding the supernatant. Cell pellets were stored at −80° C. and lysed in 250 μl 1× BugBuster® (Merck, Darmstadt, Germany) in 140 mM Tris (pH 7.8), with 1:25000 diluted BNase® (Qiagen, Hilden, Germany) by incubation of the resuspended cells for 30 min at 4° C. and 1000 rpm. Lysates were clarified by centrifugation for 15 min at 4° C., 2500 g, and 150 μl supernatant were transferred in standard 96 well plate (Thermo Fisher Scientific, Waltham, USA) for subsequent testing in quadruplets.
The activity of HPPD polypeptides was determined in absence or presence of HPPD inhibitors using the coupled HPPD activity assay (FIG. 1).
For the determination of the residual activity, the apparent kinetic constant (kapp) of the determined substrate conversion was measured as kinetic changes in absorbance at 320 nm in a coupled assay, in that homogentisate (HGA) formed by HPPD from HPP is directly converted into the well absorbing molecule maleylacetoacetate (MAA) by a second enzyme homogentisate dioxygenase (HGD), applied in excess uniformly in all assays (see FIG. 1). The measurements were performed in 384 micro titer plates (Greiner Bio-One GmbH, Frickenhausen, Germany) by plate readers (Tecan infinite M1000 or M1000PRO, Tecan, Männedorf, Switzerland). The kcat/kM ratio of an enzymatic activity is proportional to the apparent kinetic constant kapp and is proportional to kcat/kM*[E] ([E]=enzyme concentration). […] As both kapp measurements in the presence and absence of inhibitor were performed by use of the identical enzyme sample, crude or purified, and thereby at the same enzyme concentration, the enzyme concentration eliminates from the calculation of residual activity and the ratio of both kapp directly indicates the change of kM due to the inhibition.

[2] = system: transgenic soybean T0 events; assay: Additional greenhouse trials of T0 soybean events, leaf damage score 0-100 as percentiles; format: in vivo; conditions: Cmpd. 1 300 g AI/ha, five days; for leaf damage score, Interquartile range: 75th minus 25th percentile; for leaf damage score, 25th percentile: scale 0 (no damage) to 100 (complete bleaching); for leaf damage score, 75th percentile / leaf damage score, 90th percentile / leaf damage score, Median: scale 0-100
Source text: In additional greenhouse trials, 21 to 94 independent T0 soybean events per construct containing an exemplary mutant HPPD polypeptide were sprayed with the HPPD inhibitor herbicide Cmpd. […] Five days after the application, the leaf damaged area due to the HPPD inhibitor herbicide is scored in a scale from 0 (no damage) to 100 (complete bleaching). Under those conditions, the wild-type plants were completely bleached and their damage scores were in the 95-100 range.
Table 9 presents the distribution of the HPPD inhibitor herbicide damage score data as percentile for exemplary mutant HPPD inhibitor herbicide tolerant polypeptides (SEQ ID NOs). The percentiles normalize ranks of the damage score from an individual plant in a population. […] The median is the 50th percentile. Half the values had higher damage scores; half had lower damage scores. […] The difference between the 75th and 25th percentile is called the interquartile range and a marker to quantify scattering in the population. All constructs had only one single cassette insertion in the soybean genome.
In Table 9, the constructs were ranked based on injury scores according to the 75th percentile, from smallest to highest score. All exemplary HPPD polypeptide variants are better in all percentile analyses than the prior art mutant HPPD polypeptide (WO2014/043435) corresponding to SEQ ID NO:2 in this invention. The scoring of the prior art mutant HPPD polypeptide (WO2014/043435) corresponding to SEQ ID NO:2 in this invention is listed in the bottom row of Table 9.

[3] = in the presence of Cmpd. 1, 15 μM inhibitor, high substrate concentration, kapp normalized to kapp without inhibitor
[4] = in the presence of Cmpd. 1, 15 μM inhibitor, high substrate concentration, total change in signal normalized to no inhibitor
[5] = in the presence of Cmpd. 2, 15 μM inhibitor, high substrate concentration, kapp normalized to kapp without inhibitor
[6] = in the presence of Cmpd. 2, 15 μM inhibitor, high substrate concentration, total change in signal normalized to no inhibitor
[7] = in the presence of diketonitrile (DKN), 60 μM inhibitor, high substrate concentration, kapp normalized to kapp without inhibitor
[8] = in the presence of diketonitrile (DKN), 60 μM inhibitor, high substrate concentration, total change in signal normalized to no inhibitor
[9] = in the presence of mesotrione (MST), 60 μM inhibitor, high substrate concentration, kapp normalized to kapp without inhibitor
[10] = in the presence of mesotrione (MST), 60 μM inhibitor, high substrate concentration, total change in signal normalized to no inhibitor
[11] = kapp in presence of 50 μM Cmpd. 1, normalised to kapp without inhibitor, low substrate concentration
[12] = total change in signal in presence of 50 μM Cmpd. 1, normalised to that without inhibitor, low substrate concentration

| Molecule | Residual activity [1, 3] | Residual turnover [1, 4] | Residual activity [1, 5] | Residual turnover [1, 6] | Residual activity [1, 7] | Residual turnover [1, 8] | Residual activity [1, 9] | Residual turnover [1, 10] | Residual activity [1, 11] | Residual turnover [1, 12] | other results |
| --- | --- | --- | --- | --- | --- | --- | --- | --- | --- | --- | --- |
| CS(=O)(=O)c1ccc(C(=O)C2C(=O)CCCC2=O)c([N+](=O)[O-])c1 [mesotrione, 2-[4-(methylsulfonyl)-2-nitrobenzoyl]-1,3-cyclohexanedione, reference compound] | 9% | 9% | 16% | 22% | 17% | 17% | 13% | 17% |  |  |  |
| B1 | 45% | 69% | 94% | 94% | n.i. (no inhibition was observed under the given conditions) | n.i. | 88% | 92% |  |  |  |
| B2 |  |  |  |  |  |  |  |  | 47% | 74% |  |
| B3 |  |  |  |  |  |  |  |  |  |  | leaf damage score, Interquartile range [2]: 10.0; leaf damage score, 25th percentile [2]: 5.0; leaf damage score, 75th percentile [2]: 15.0; leaf damage score, 90th percentile [2]: 49.0; leaf damage score, Median [2]: 10.0 |
| B4 |  |  |  |  |  |  |  |  | 78% | 94% |  |
| B5 |  |  |  |  |  |  |  |  |  |  | leaf damage score, Interquartile range [2]: 5.0; leaf damage score, 25th percentile [2]: 10.0; leaf damage score, 75th percentile [2]: 15.0; leaf damage score, 90th percentile [2]: 34.5; leaf damage score, Median [2]: 10.0 |
| B6 | 21% | 44% | 67% | 74% | 91% | 95% | 70% | 85% |  |  |  |
| B7 |  |  |  |  |  |  |  |  | 40% | 65% |  |
| B8 |  |  |  |  |  |  |  |  | 64% | 84% |  |
| B9 | 43% | 68% | 90% | 90% | n.i. (no inhibition was observed under the given conditions) | 95% | 85% | 90% | 29% | 54% |  |
| B10 |  |  |  |  |  |  |  |  | 39% | 68% |  |
| B11 | 67% | 79% | n.i. (no inhibition was observed under the given conditions) | n.i. | n.i. (no inhibition was observed under the given conditions) | n.i. |  |  |  |  |  |
| B12 |  |  |  |  |  |  |  |  | 46% | 80% |  |
| B13 | 40% | 67% | 95% | n.i. | n.i. (no inhibition was observed under the given conditions) | n.i. | 83% | n.i. | 50% | 81% |  |
| B14 |  |  |  |  |  |  |  |  | 67% | 85% |  |
